Measurements: patent US20250179196A1 (Janssen / Centocor, published 2025)

Columns and labels:
[1] = molecular target: T1, Recombinant human IL-23 receptor (IL-23R) extracellular domain (ECD) protein (human, UniProt Q5VWK5 24-355); test: SPR Biacore 8K, supernatant, analysis 2
T1 construct: also called human IL-23R ECD; hu IL-23R ECD
T1 sequence: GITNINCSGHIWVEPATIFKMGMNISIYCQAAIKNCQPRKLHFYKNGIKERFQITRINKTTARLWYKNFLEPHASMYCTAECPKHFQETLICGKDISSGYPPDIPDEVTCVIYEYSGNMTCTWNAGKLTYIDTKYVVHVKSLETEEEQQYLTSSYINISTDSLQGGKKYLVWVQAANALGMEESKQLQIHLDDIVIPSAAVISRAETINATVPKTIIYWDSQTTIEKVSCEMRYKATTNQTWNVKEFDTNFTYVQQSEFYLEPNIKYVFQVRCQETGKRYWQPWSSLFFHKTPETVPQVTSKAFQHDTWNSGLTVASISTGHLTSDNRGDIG
Procedure, shortened: (§1)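 Kinetics fitted to a 1:1 Langmuir model gave on-rate, off-rate and KD. Human or rat IL-23R ECD flowed over captured mAbs (~150 RU) at 0.8–500 nM, 5-fold dilutions: 3 min binding at 50 μL/min, then 30 min buffer, 25 °C, HBS-P+ plus 100 μg/ml BSA.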

[2] = molecular target: T2, human IL-23R on the cell surface (human, UniProt Q5VWK5 24-629); test: flow cytometry, HEK-IL-23R cells (Expt E)
T2 construct: whole, on cells; also called cell surface human IL-23R; IL-23R on iLite cells, HEK-IL-23R cells and primary human immune cells
T2 sequence (looked up): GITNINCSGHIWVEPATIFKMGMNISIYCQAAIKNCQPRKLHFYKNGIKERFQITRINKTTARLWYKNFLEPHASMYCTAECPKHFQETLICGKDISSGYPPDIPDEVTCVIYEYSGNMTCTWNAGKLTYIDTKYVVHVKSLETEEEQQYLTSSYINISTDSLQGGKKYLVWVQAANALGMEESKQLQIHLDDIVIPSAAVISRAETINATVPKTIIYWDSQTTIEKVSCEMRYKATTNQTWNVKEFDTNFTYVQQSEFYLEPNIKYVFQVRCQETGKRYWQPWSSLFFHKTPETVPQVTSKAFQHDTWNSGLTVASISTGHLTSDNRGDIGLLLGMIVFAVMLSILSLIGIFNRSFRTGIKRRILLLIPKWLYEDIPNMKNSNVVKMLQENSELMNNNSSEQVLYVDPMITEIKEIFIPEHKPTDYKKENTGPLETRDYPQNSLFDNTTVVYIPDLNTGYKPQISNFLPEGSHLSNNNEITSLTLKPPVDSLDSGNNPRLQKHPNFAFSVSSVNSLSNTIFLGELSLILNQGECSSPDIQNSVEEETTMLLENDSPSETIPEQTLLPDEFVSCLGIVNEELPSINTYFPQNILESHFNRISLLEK

[3] = molecular target: T3, rat IL-23R extracellular domain (ECD) protein (rat); test: SPR Biacore 8K, supernatant
T3 construct: also called rat IL-23R ECD; F1LX96 amino acids 24-354
T3 chain: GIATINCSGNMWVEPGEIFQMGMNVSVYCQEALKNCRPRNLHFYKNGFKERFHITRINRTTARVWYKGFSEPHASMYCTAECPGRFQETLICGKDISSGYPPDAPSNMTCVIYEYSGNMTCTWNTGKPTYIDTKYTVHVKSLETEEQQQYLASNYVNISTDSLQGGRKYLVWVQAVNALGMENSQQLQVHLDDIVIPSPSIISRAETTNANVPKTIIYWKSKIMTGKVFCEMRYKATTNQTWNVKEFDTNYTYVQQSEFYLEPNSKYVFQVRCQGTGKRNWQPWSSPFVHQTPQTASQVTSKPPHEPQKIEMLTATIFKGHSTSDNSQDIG
Procedure, shortened: as §1

[4] = molecular target: T1, Recombinant human IL-23 receptor …; test: SPR Biacore 8K, supernatant, analysis 1
Procedure, shortened: as §1

[5] = molecular target: T4, human IL-23R expressed on the cell surface of stably transfected iLite and HEK cell lines (human, UniProt Q5VWK5 24-629); test: flow cytometry on human IL-23R iLite cells, Expt A (1-point)
T4 construct: whole, on cells; Same receptor on two transfected cell lines; the cell line is named under assay; also called human IL-23R iLite cells; human IL-23R HEK cells
T4 sequence (looked up): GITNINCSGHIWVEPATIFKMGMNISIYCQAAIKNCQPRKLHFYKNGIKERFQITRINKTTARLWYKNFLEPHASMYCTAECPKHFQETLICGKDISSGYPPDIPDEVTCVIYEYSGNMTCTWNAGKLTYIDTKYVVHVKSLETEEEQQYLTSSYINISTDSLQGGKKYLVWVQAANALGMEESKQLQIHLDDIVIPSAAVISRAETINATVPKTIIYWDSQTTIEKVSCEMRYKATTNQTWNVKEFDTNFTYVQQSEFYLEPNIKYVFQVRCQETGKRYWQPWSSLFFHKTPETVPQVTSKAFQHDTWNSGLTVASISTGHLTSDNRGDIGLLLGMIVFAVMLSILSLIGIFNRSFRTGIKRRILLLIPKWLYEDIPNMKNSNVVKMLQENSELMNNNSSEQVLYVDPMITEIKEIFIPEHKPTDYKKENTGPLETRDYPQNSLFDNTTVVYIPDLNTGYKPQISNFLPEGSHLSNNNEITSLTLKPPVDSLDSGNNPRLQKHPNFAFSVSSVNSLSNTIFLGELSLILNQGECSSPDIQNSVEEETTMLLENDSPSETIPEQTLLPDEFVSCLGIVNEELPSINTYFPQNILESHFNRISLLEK
Experimental: Human IL-23R iLiTe cell single concentration mAb Binding. Anti-IL-23R mouse IgG₂ₐ mAbs derived from phage panning were tested for binding to human IL-23R expressing iLiTe cells, where a PE conjugated anti mouse secondary antibody detected mAbs bound to the receptor on the cells. […] The next day 100,000 cells were added to each well of a 96 well V bottom plate (Costar, Catalog #3357), centrifuged at 450× gravity for 2 minutes, and then supernatants were decanted. […] Antibodies diluted to 3 μg/mL in Stain Buffer (BSA) (BD Pharmagen, Catalog #554657) were added at 100 μL/well and incubated on ice for 50 minutes, then plates were centrifuged and supernatants were decanted. […] Cells were washed by adding 100 μL/well of Stain Buffer followed by centrifugation and decanting of the supernatants. Cells were resuspended in 100 μL/well of Stain Buffer and analyzed on the Becton Dickenson LSR II FACS instrument with HTS module. Data was analyzed using FlowJo software (Treestar) to obtain geometric mean fluorescence intensities.

[6] = molecular target: T4, human IL-23R expressed on the cell …; test: flow cytometry on human IL-23R HEK cells, Expt E (11-point, 384well)
Procedure, shortened: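 Antibody bound to HEK-IL-23R cells 30 min at 37 °C over 11 concentrations; after washes, Sytox Green added and cells run on iQue. Geometric MFI of 647 detection antibody on single viable cells fitted by variable-slope dose–response.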

[7] = molecular target: T5, human IL-23R extracellular domain (ECD) protein (human, UniProt Q5VWK5 24-355); test: column 'Affinity to hu IL-23R ECD' (summary of SPR data)
T5 construct: Recombinant ECD; also called hu IL-23R ECD
T5 sequence: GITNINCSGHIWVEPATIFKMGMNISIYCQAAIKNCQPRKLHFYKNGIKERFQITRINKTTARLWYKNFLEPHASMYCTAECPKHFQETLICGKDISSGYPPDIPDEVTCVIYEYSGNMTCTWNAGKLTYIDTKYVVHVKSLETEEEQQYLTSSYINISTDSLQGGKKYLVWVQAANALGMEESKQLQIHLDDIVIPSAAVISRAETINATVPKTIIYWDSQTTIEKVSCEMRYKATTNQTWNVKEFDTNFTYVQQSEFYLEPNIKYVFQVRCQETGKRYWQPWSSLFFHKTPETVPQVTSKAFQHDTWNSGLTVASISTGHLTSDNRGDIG

[8] = molecular target: T4, human IL-23R expressed on the cell …; test: flow cytometry on human IL-23R iLite cells, Expt C (12-point), Gate 1 + 2
Experimental: (§2) Human IL-23R iLiTe cell concentration response mAb binding. […] The next day 100,000 cells were added to each well of a 96 well V bottom plate (Costar, Catalog #3357), centrifuged at 450× gravity for 2 minutes, and then supernatants were decanted. Antibodies were diluted in Stain Buffer (BSA) (BD Pharmagen, Catalog #554657) and added at 50 μL/well, and mixed. Plates were incubated on ice for 50 minutes, then plates were centrifuged and supernatants were decanted. […] Cells were washed by adding 200 μL/well of Stain Buffer followed by centrifugation and decanting of the supernatants. Cells were resuspended in 100 μL/well of Stain Buffer, transferred in quadruplicate to a 384 well plate (Greiner, Catalog #781281) and analyzed on the Becton Dickenson LSR II FACS instrument with HTS module. Data was analyzed using FlowJo software (Treestar) to obtain geometric mean fluorescence intensities, and geometric mean fluorescence intensities were plotted over log mAb concentrations fitted with a sigmoidal dose response curve with variable slope using GraphPad Prism.

[9] = molecular target: T4, human IL-23R expressed on the cell …; test: flow cytometry on human IL-23R iLite cells, Expt B (1-point)
Experimental: Human IL-23R iLiTe cell single concentration mAb Binding. Anti-IL-23R mouse IgG₂ₐ mAbs derived from phage panning were tested for binding to human IL-23R expressing iLiTe cells, where a PE conjugated anti mouse secondary antibody detected mAbs bound to the receptor on the cells. […] The next day 100,000 cells were added to each well of a 96 well V bottom plate (Costar, Catalog #3357), centrifuged at 450× gravity for 2 minutes, and then supernatants were decanted. […] Cells were washed by adding 100 μL/well of Stain Buffer followed by centrifugation and decanting of the supernatants. Cells were resuspended in 100 μL/well of Stain Buffer and analyzed on the Becton Dickenson LSR II FACS instrument with HTS module. Data was analyzed using FlowJo software (Treestar) to obtain geometric mean fluorescence intensities.

[10] = molecular target: T4, human IL-23R expressed on the cell …; test: flow cytometry on human IL-23R iLite cells, Expt C (12-point), Gate 2
Experimental: as §2

B1: I23RB173 (antibody, mouse IgG2a, kappa, V domains shown)
VH: DVQLQESGPGLVKPSQSLSLTCSVTGYSITSGYYWNWIRQFPGNKLEWMGYISYDGGNNYNPSLKNRISITRDTSKNQFFLKLNSVTTEDTATYYCARDAGLLPYYAMDYWGQGTTLTVSS
VL: DIKMTQSPAIMSASPGEKVTITCSASSSVSYMHWFQQKPGTSPKLWIYSTSNLASGVPARFSGSGSGTSYSLTISRMEAEDAATYYCQQRSSYPLTFGDGTKLEMKR
notes: mouse immunization; mouse IgG2a/kappa
Kd [1]: 36.1 nM | koff [1]: 0.0103 s⁻¹ | kon [1]: 285000 M⁻¹ s⁻¹ | EC50 [2]: ≤ 9.7 nM | binding result [3]: no binding (tested: 500 nM) | Kd [4]: 25.7 nM | koff [4]: 0.00759 s⁻¹ | kon [4]: 296000 M⁻¹ s⁻¹

B2: I23RB7 (antibody, mouse IgG2a, kappa, V domains shown)
VH: QIQLVQSGPELKKPGETVKISCKASGYTFTTYGMSWVKQAPGKGLKWMGWINTYSGVPTYADDFKGRFAFSLETSASTAYLQINNLKNEDTATYYCARRDRYGYVAGAFAYWGQGTLVTVSS
VL: QIVLTQSPAIMSASPGEKVTMTCSASSSVSYMYWYQQKPGSSPRLLIYDTSNLASGVPVRFSGSGSGTSYSLTISRMEAEDAATYYCQQWSSYPWTFGGGTKLEIKR
notes: phage display; mouse V, mouse IgG2a/kappa
MFI @ 20 nM [5]: 4320 MFI | MFI (6.4 nM) [6]: 172000 MFI | Kd [7]: 1 nM | EC50 [8]: 0.07 nM | MFI @ 0.7 nM [9]: 2230 MFI | EC50 [10]: 0.1 nM

B3: I23RB1 (antibody, mouse IgG2a, kappa, V domains shown)
VH: QVQLVQSGAEVKKPGSSVKVSCKASGGTFKNYAISWVRQAPGQGLEWMGWIRPIFGTAYYAQKFQGRVTITADESTSTAYMELSSLRSEDTAVYYCARDSGSRYAGRYAFDYWGQGTLVTVSS
VL: EIVLTQSPATLSLSPGERATLSCRASQSVSSYLAWYQQKPGQAPRLLIYDASNRATGIPARFSGSGSGTDFTLTISSLEPEDFAVYYCQQRSNWPLTFGQGTKVEIKR
notes: phage display; human V, mouse IgG2a/kappa
MFI @ 20 nM [5]: 5090 MFI | MFI (6.4 nM) [6]: 287000 MFI | EC50 [8]: 0.26 nM | MFI @ 0.7 nM [9]: 2990 MFI | EC50 [10]: 0.02 nM
